B1: anti-NKp46 monoclonal antibody clone K3 (antibody, V domains shown)
VH: EVQLQQSGPELVKPGTSVKISCKTSGYTFTEYSMHWVKQSHGKSLEWFGGISPNSGGTSYNQKFKGKATLTVDKSSSTAYMELRSLTSEDSAVYYCARRDFHSSFDYWGQGTTLTVSS
VL: DIVLTQSPATLSVTPGNSVSLSCRASQSISDYLHWFQQKSHESPRLLIKYASQSISGIPSRFSGSGSGSDFTLSINSVEPEDVGVYYCQNGHSFPLTFGPGTKLELK
B2: humanized P4 antibody having mutated IgG4 (antibody, V domains shown)
VH: EVQLQQSGAEVKKPGSSVKVSCKTSGYTFTEYSMHWVRQAPGKSLEWFGGISPNSGGTSYNQKFKGRATLTVDKSSSTAYMELSSLRSEDTAVYYCARRDFHSSFDYWGQGTTVTVSS
VL: DIVMTQSPATLSLSPGERATLSCRASQSISDYLHWFQQKPHESPRLLIKYASQSISGIPARFSGSGSGSDFTLTISSLEPEDFAVYYCQNGHSFPLTFGPGTKVDIK
notes: detected with an anti-human kappa secondary antibody
B3: humanized K3 antibody having mutated IgG4 (antibody, V domains shown)
VH: B2 VH
VL: DIVLTQSPATLSLSPGERATLSCRASQSISDYLHWFQQKPHESPRLLIKYASQSISGIPARFSGSGSGSDFTLTISSLEPEDFAVYYCQNGHSFPLTFGPGTKVDIKR
notes: as for B2

Tests used:
NKp46 D1 domain-Ig = biological target: T1, NKp46 D1 domain-Ig (human, UniProt O76036 22-120); assay: ELISA, D1-Ig plated at 0.1 ug/well, biotin anti-mouse / streptavidin-POD / TMB, OD 650nm
T1 construct: domain: D1; also called D1-Ig; Ig-D1; not shown: Ig part not described for this construct
T1 sequence (O76036 22-120): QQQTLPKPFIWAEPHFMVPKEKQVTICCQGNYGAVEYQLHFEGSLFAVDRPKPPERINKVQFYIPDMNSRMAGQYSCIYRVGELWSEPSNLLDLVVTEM
Method: To identify the binding site of the anti-NKp46 mAbs, Ig-D1, Ig-D2 and Ig-NKp46 were plated at 0.1 µg/well. The plate was placed at 4° C. overnight. The next day blocking was performed (blocking buffer is PBSx1, 0.05%Tween-20, and 5% BSA) followed by addition of the mAbs at 0.1 µg/well and 10 µl/well of SN antibodies (both diluted in blocking buffer to a final volume of 100µl). The plate was placed at 4° C. overnight. The next day, biotin anti-mouse was added (diluted in blocking buffer), followed by streptavidin-POD (diluted in blocking buffer), and with TMB for detection of samples at OD650nm.

[1] = biological target: T2, Acro Biosystems Human NKp46 expressed in HEK293 cells (human, UniProt O76036 22-258); assay: ELISA titration on coated Acro Biosystems human NKp46, anti-human kappa-HRP, absorbance at 450 nm; given as affinity
T2 construct: Bought antigen coated on the ELISA plate
T2 sequence (O76036 22-258 limits assumed): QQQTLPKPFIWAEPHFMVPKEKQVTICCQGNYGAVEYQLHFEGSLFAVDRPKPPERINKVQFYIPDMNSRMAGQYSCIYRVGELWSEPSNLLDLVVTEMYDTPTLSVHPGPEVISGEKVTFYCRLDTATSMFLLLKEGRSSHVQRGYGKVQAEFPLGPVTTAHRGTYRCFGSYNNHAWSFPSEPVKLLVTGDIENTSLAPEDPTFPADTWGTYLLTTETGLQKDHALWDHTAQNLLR
Method: The binding of the humanized antibodies with mutated IgG4 to cells expressing NKp46 was examined. The experiments were performed as follows: [0300] 1. Coat tested in a matrix of 3 conc. vs. 3 buffers to find optimal signal. [0301] 2. Optimal signal conditions were used to coat the ELISA tray, using standard blocking and washing steps. [0302] 3. Primary antibody applied in range of concentrations with 10-dilutions (MAbs with humanized variable + mutated IgG4). [0303] 4. Secondary Ab used to detect binding was Anti-Hu Kappa with HRP (TMB sub strate). [0304] 5. Absorbance measured at 450 nm.
The antigen was Acro Biosystems Human NKp46 that was expressed in HEK293 cells.

Row | Binder | binding result (NKp46 D1 domain-Ig) | Kd [1]
1 | B1 | no binding | –
2 | B2 | – | 0.0205 nM
3 | B3 | – | 0.027 nM
